Data from patent US20220402990.

Assays:
[1] = test system: Activatable cytokine construct IFN-α-2b 1490DNI-hIgG4
[2] = test system: Activatable cytokine construct IFN-α2b-1204DNIdl-hIgG4
[3] = test system: Activatable cytokine construct ProC440 (N IFNα2b 0 1204DNIdL 0AA Fc)
[4] = test system: IFN-α2b-1204DNIdl-hIgG4 with five amino acid residues added to the linker

In the case of “recombinant human urokinase-type plasminogen activator (uPA)”, the “protease cleavage, gel electrophoresis” value [1] is reported as “The results suggest that the proteases were effective at cleaving the cleavable moieties in the activatable cytokine constructs”, the “protease cleavage, gel electrophoresis” value [2] is reported as “The results suggest that the proteases were effective at cleaving the cleavable moieties in the activatable cytokine constructs” and the “protease cleavage, mass spectrometry” value [3] is reported as “Cleavage with uPa at the expected site in the CM was confirmed by Mass spectrometry analysis”. For the same substance, the “protease cleavage, gel electrophoresis” value [4] was “The results suggest that the proteases were effective at cleaving the cleavable moieties in the activatable cytokine constructs”.
